Test results: article PMC6792133

Assays:
[1] = target: NbPI4KII-mGFP (Nicotiana benthamiana); experiment: FRET or BRET; FRET in agroinfiltrated N. benthamiana leaf epidermal cells, 3 dpi; mGFP donor, DsRed acceptor; Olympus FluoView FV1000
[2] = target: NbPI4KII-mGFP (Nicotiana benthamiana)
[3] = target: Capsicum annuum phosphatidylinositol 4-kinase type II (CaPI4KII), yeast two-hybrid fusion (Capsicum annuum)
[4] = target: NbPI4KII-mGFP (Nicotiana benthamiana); remark: listed apart in the source

Substance | FRET efficiency [1] | percentage of cells with NbPI4KII-mGFP exclusively inside the nucleus when co-expressed with Rep1-180-DsRed (N = 16) [2] | percentage of cells with CaPI4KII-mGFP restricted to the nucleus when co-expressed with Rep1-180-DsRed [3] | percentage of cells in which NbPI4KII-mGFP was redirected into the nucleus when co-expressed with Rep181-361-DsRed (N = 17) [2] | percentage of cells with CaPI4KII-mGFP restricted to the nucleus when co-expressed with Rep181-361-DsRed [3] | percentage of cells with NbPI4KII-mGFP only inside the nucleus when co-expressed with Rep-DsRed (N. benthamiana epidermis, N = 19) [4]
ChiLCV Rep1-120-DsRed (domain or fragment) | 72% |  |  |  |  | 
ChiLCV Rep1-180-DsRed (domain or fragment) | 43% | 87% | 61% |  |  | 
ChiLCV Rep181-361-DsRed (domain or fragment) | 76% |  |  | 78% | 41% | 
ChiLCV Rep-DsRed (natural protein) | 47% |  |  |  |  | 63%
